Measured values published in article PMC3397948, “Cytoplasmic Sulfurtransferases in the Purple Sulfur Bacterium Allochromatium vinosum: Evidence for Sulfur Transfer from DsrEFH to DsrC” (PLoS ONE, 2012).
Values joined by “and” are separate entries in the source; they are usually repeats but may differ in a detail not shown here. Equal values may be shown once.

T1: DsrEFH from Allochromatium vinosum (DsrE2F2H2 heterohexamer), wild type (Allochromatium vinosum, UniProt O87896 1-130; O87897 1-136; O87898 1-102)
T1 construct: DsrE, subunit of DsrEFH, Allochromatium vinosum; conserved active-site Cys78; DsrF, subunit of DsrEFH, Allochromatium vinosum; DsrH, subunit of DsrEFH, Allochromatium vinosum; conserved Cys20; source: overproduced and purified as described earlier [22], [8], [3]; not shown: His-tag (subunit inferred: DsrE), N-terminal, kept; copies: 2 + 2 + 2
T1 sequence (looked up) 1: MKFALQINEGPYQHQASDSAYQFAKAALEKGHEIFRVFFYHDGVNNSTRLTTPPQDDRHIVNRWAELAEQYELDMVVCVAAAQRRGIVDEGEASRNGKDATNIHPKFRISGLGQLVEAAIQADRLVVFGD
T1 sequence (looked up) 2: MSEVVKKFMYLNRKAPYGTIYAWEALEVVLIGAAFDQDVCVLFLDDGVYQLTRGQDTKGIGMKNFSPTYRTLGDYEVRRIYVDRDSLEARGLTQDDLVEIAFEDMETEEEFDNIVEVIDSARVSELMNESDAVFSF
T1 sequence (looked up) 3: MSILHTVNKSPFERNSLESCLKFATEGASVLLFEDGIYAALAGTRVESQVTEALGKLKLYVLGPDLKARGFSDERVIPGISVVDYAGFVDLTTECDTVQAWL


Experiments:
DsrEFH = molecular target: T2, DsrEFH (Allochromatium vinosum, UniProt O87896); assay: MALDI-TOF mass spectrometry, mass increase (persulfide); assay type: binding; details: 2 mM NaSH, 1 h, 30°C, 50 mM Tris-HCl pH 7.5, 100 mM NaCl; covalent; at DsrE-Cys78
T2 construct: gene dsrE; recombinant, amino-terminal His-tag; alpha2beta2gamma2 heterohexamer; with Intracellular sulfur oxidation protein DsrF; Intracellular sulfur oxidation protein DsrH

[1] = molecular target: T1, DsrEFH from Allochromatium vinosum …; assay: native gel or EMSA; Blue-native PAGE (10-15%), 4°C, 6 mA; DsrEFH pre-incubated with DsrC in 1:2 ratio as for the native gel; masses from a calibration curve of standards; details: both partners purified
[2] = molecular target: T1, DsrEFH from Allochromatium vinosum …; assay: dynamic light scattering; DsrEFH (2 mg/ml) with or without DsrC (0.8 mg/ml), same ratio and conditions as for native gels, 30°C; apparent molecular mass from hydrodynamic diameter; details: both partners purified

stoichiometry N [1] | stoichiometry N [2] | Molecule | MALDI-TOF mass spectrometry, mass increase (persulfide) (DsrEFH)
– | – | S [sulfide] | The persulfuration was attained by incubation with sulfide as well as with cysteine and IscS.
1 DsrC per DsrE2F2H2 heterohexamer and 2 DsrC per DsrE2F2H2 heterohexamer | 1 DsrC:DsrEFH | DsrC from Allochromatium vinosum, wild type (natural protein, UniProt O87899 1-112, looked up, DsrC, Allochromatium vinosum; conserved Cys100 and Cys111 (Cys111 in the penultimate position of the protein); Reduced with 25 uM TCEP before SPR; also called DsrC wild type; DsrC wt; source: overproduced and purified as described earlier [22], [8], [3]; not shown: His-tag, N-terminal, kept) MADTIEVDGKQFAVDEEGYLSNLNDWVPGVADVMAKQDNLELTEEHWDIINFLREYYEEYQIAPAVRVLTKAVGKKLGKEKGNSKYLYSLFPYGPAKQACRFAGLPKPTGCV | –
